# Results taken from the nanobody polyreactivity screen of Harvey et al. (2022).
# Assay: yeast display, Sf9 membrane polyspecificity reagent, FACS + sequencing; frameworks hold sequencing errors
# Procedure, shortened: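 Sorting gates, low and high (top ~1%), were placed on anti-HA fluorescence to track expression and on streptavidin fluorescence to track reagent binding. A clone's polyreactivity label is taken from the gate it came out of. The reagent was 10% biotinylated, detergent-solubilized Sf9 membrane, applied for 1 hour at 4 °C to galactose-induced yeast display cells.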
row,Sequence,polyreactivity (PSR sort gate)
1,QVQLVESGGGLVQAGGSLRLSCAASGRIFGRNTMGWYRQAPGKEREFVAAITWSGGSTYYADSVKGRFTISRDNAKNTVYLQMNSLKPEDTAVYYCAAPSYYRYDYWGQGTQVTVSS,high polyreactivity
2,QVQLVESGGGLVQAGGSLRLSCAASGFTFYSNAMGWYRQAPGKERELVAAINWGGGSTYYADSVKGRFTISRDNAKNTVYLQMNSLKPEDTAVYYCAAEPIWEYWNGVSYAYDYWGQGTQVTVSS,low polyreactivity
3,QVQLVESGGGLVQAGGSLRLSCAASGRIFSGYAMGWYIQAHGKERELVAAISSTGGTYYADSVKGRFTISRDNAKNTVYLQMNSLKPEDTAVYYFAARYRTLTKYYWGQGTQVTVSS,low polyreactivity
4,QVQLVESGGGLVQAGGSLRLSCAASGRIFGYYAMGWYRQAPGKERELVAAISSSGGSTYYADSVKGRFTISRDNAKNTVYLQMNSLKPEDTAVYYCAAGGPRVNGYGRAYDYWGQGTQVTVSS,high polyreactivity
5,QVQLVESGGGLVQAGGSLRLSCAASGRIFVDNAMGWYRQAPGKERELVATISWSGGSTYADSVKGRFTISRDNAKNTVYLQMNSLKPEDTAVYYCAADGSWQFYTLYQEFDYWGQGTQVTVSS,low polyreactivity
6,QVQLVESGGGLVQAGGSLRLSCAASGRIFRSNAMGWYRQAPGKERELVAAISGSGSTTNYADSVKGRFTISRDNAKNTVYLQMNSLKPEDTAVYYCATGKRGVSGRGFRYDYWGQGTQVTVSS,high polyreactivity
7,QVQLVESGGGLVQAGGSLRLSCDASGSTFYYYAMGWYRQAPGKERELVDSISFSGGSTYYADSVKGRFTISRDNAKNTVYLQMNSLKPEDTAVYYCGYYYWGQGTQVTVSS,low polyreactivity
8,QVQLVESGGGLVQAGGSLRLSCAASGIIFSINAMGWDRQAPGKERELVAAISRSGGSTNYADSVKGRFTISRDNAKNTVYLQMNSLKPEDTAVYYCATVHRYSVWSHNYWGQGTQVTVAS,high polyreactivity
9,QVQLVESGGGLVQAGGSLRLSCAASGSTFYTNAMGWYRQAPGKERELVAAISASVGSTYYADSVKGRFTISRDNAKNTVYLQMNSLKPEDTAVYYCAADVWASRRYDYWGQGTQVTVSS,low polyreactivity
10,QVQLVESGGGLVQAGGSLRLSCAASGFTFAYYTMGWYRQAPGKERELVAAINWSGGSTYYADSVKGRFTISRDNAKNTVYLQMNSLKPEDTAVYYSAPTCPYYNSRQGHQYDYWGQGTQVTVSS,high polyreactivity
11,QVQHVESGGGLVQAGGSLRLSCAASGSTFTGYTMGWYRQAPGKERELVASIRTYYADSVKGRFTISRDNAKNTVYLQMNSLKPEDTAVYYCAADFPSATGGYDYWGQGTQVTVSS,low polyreactivity
12,QVQLVESGGGLVQAGGSLRLSCAASGRIFRYYAMGWYRQAPGKERELVAAISYSGGRTYYADSVKGRFTISRDNAKNTVYLQMNSLKPEDTAVYYCNARARSRKFYYWGQGTQVTVSS,high polyreactivity
13,QVQLVESGGGLVQAGGSLRLSCAASGSILYRNAMGWYRQAPGKEREFVAAISWRGGSTYYADSVKGRFTISRDNAKNTVYLQMNSLKPEDTAVYYCAKGGYRSPPGRYDGYYWGQGTQVTVSS,high polyreactivity
14,QVQLVESWGGLVQAGGSLRLSCAASGLTFNYYAMGWYRQAPGKERELVAAITSSGGSTYYADSVKGRFTISRDNAKNTVYLQMNSLKPEDTAVYYCNADVYAHRYIYGFDYWGQGTQVTVSS,high polyreactivity
15,QVQLVESGGGLVQAGGSLRLSCAASGRIFRGYGMGWYSQAPGKERVLVAAITSRGGSTYYADSVKGRFTSSRDNAKNTVYLQMNSLKPQDTAVYYCYAVAFYYVGSKTYTRGLDYWGQGTQVTVSS,high polyreactivity
16,QVQLVESGGGLVQAGGSLRLSCAASGSIFHYYAMGWYRQAPGKERELVAAINSTGGSRTYYADSVKGRFTISRDNAKNTVYLRMNCLKPEDTAVYYCAADYRVVWRAYDYWGQGTQVTVSS,low polyreactivity
